Test results as given in paper PMC7367260, “Nucleosome binding by the pioneer transcription factor OCT4” (Scientific Reports, 2020).

Experiments:
human histone H4 = target: T1, human histone H4 (human, UniProt P62805 1-103); test: cross-linking; XL-MS: LIN28B nucleosome (4.3 µM) mixed with OCT4 at nucleosome:OCT4 = 1:4, 1 h on ice, crosslinked with 9.6 mM DSS-H12/D12 at 30 °C for 30 min; Trypsin/Lys-C digest, LC/MS-MS, xQuest/xProphet; settings: both partners purified
T1 construct: histone H4, human canonical histone, wild type; Stood in the assays as part of the reconstituted LIN28B nucleosome; The H4 S47C mutant was used only for the chemical probing assay

human histone H3.1 = human histone H3.1 (human, UniProt P68431 1-136); test: as above; settings: both partners purified

- binding result (human histone H4): binds
- binding result (human histone H3.1): binds
B1: His6-tagged human OCT4 (5CS) (natural protein)
chain: MAGHLASDFAFSPPPGGGGDGPGGPEPGWVDPRTWLSFQGPPGGPGIGPGVGPGSEVWGIPPCPPPYEFCGGMAYCGPQVGVGLVPQGGLETSQPEGEAGVGVESNSDGASPEPCTVTPGAVKLEKEKLEQNPEESQDIKALQKELEQFAKLLKQKRITLGYTQADVGLTLGVLFGKVFSQTTISRFEALQLSFKNMSKLRPLLQKWVEEADNNENLQEISKAETLVQARKRKRTSIENRVRGNLENLFLQSPKPTLQQISHIAQQLGLEKDVVRVWFSNRRQKGKRSSSDYAQREDFEAAGSPFSGGPVSFPLAPGPHFGTPGYGSPHFTALYSSVPFPEGEAFPPVSVTTLGSPMHSN
notes: OCT4, human; 5CS mutant: all 5 Cys residues of the POUS·POUHD domain replaced with Ser; Expressed from pET15b in which the thrombin site was replaced with a PreScission site; no cleavage step is described, and the gel-shift methods name His6-OCT4 (5CS). pET15b would place the tag at the N-terminus (surmised); also called His6-OCT4 (5CS)
